From the DeepSol protein solubility set

experiment: soluble on expression in E. coli; label from the status in PepcDB or PDB records

| Sequence | soluble on expression in E. coli |
| --- | --- |
| MKLSKDTTALLKNFATINSGIMLKSGQFIMTRAVNGTTYAEANISDVIDFDVAIYDLNGFLGILSLVNDDAEISQSEDGNIKIADARSTIFWPAADPSTVVAPNKPIPFPVASAVTEIKAEDLQQLLRVSRGLQIDTIAITVKEGKIVINGFNKVEDSALTRVKYSLTLGDYDGENTFNFIINMANMKMQPGNYKLLLWAKGKQGAAKFEGEHANYVVALEADSTHDF | soluble |
| MSLKRKYEDHFKEQAVRLSFERGEISSVERELGINRTSLGKWRKKYEHLKLAPKDAVIIELNKKIKDSLLTLEILKNGSEFAAQGKVMTKRFIENNSSKYPIGKMCALLQISQRAYYKLKKKEISDKQSQIILLKEEVAAVYYEFKKTYGYRKIAKVLQCRGFKVGESQIRIYMNALGLRRRAKSRFTITTDSVHNHYIAQNILNREFTINQPAKAWVSDITYIAAEKGFLYLTIVLDLFDRKIIGWSLADSMSTKETTLPAWEMAVKNRNITQDLIFHSDRGVQYANKIFTETLDSYKFVRRSMSRKQNHNDNAVSESFFGNLKRELINGNKPLPREQMRVQVYQYIENWYNKKRRHSYLNYRTIEEFDKLHEGHHHHHH | not soluble |
| MKNPCNVIAIIGKPRDQQAIQTHKELYEWLTSEGYKVFIDDRLAAILDEIPQNHFASLVELGKNADLAIVVGGDGNMLGAARILSRFDVPVIGVNRGNLGFLTDLNPDDFQAALKAVLAGEYIEEERFLLEAEVHRHGQIKSHNAALNEAVLHPGQIAHMIEFEVYIDESFAFSLRADGLIVSTPTGSTAYSLSGGGPILSPSLNAISLVPMFPHTLSSRPLVVDGKRRIKLIVSPENRGTQEVSCDGQVSLPVSPGDEIHIYQSPNVLKLIHPKDYSYYHVLRNKLGWSSKLFMAGDPLEHHHHHH | soluble |
| MGSDKIHHHHHHMTKPMHTPPLVPPQAWEAAREQLLVKEKALTRARDALAAERRQMPWMAVEKEYAFEGPEGRVSLVDLFEGRRQLIVYRAFFEPGVFGWPDHACRGCSMVADQVAHLAHLNARDTTLVFVSRAPQADIARLKARMGWQIPWFTVTDSFDADFGVDEWHGTNVFYRDGDRVFRTYFINNRGDEQMGSTWNYLDITPLGRQEVWEDSPEGYPQTPTYKWWNWHDSYVKDAEPDKKWVEVSDAGEAAFRNQD | not soluble |
| MGHHHHHHSHMHGSPVEVKIQSRSSPPTMPPLPPINPGGPRPVSFTPTALSNGINHSPPTLNGAPSPPQRFSNGPASSTSSALTNQQLPATCGARQLSKLKRFLTTLQQFGNDISPEIGEKVRTLVLALVNSTVTIEEFHCKLQEATNFPLRPFVIPFLKANLPLLQRELLHCARAAKQTPSQYLAQHEHLLLNTSIASPADSSELLMEVHGNGKRPSPESCIIHLKSMGVASRHEYFSGTLQMPAHPVRNSTLENLWVDCSRSLRSTVLPFP | not soluble |
| MNAYQKTIGRAVTLSGVGIHGGAPASARLLPADADTGILFQRSDIKDSAPVCAHVSQIGATDLCTSLGAREARIDTVEHLMAAISALGIDNLVVEIEGPEVPILDGTSARFIEAVDSVGVVTQDAKRRFIRILKTVRVEAGNSWGEFRPYDGTRFEVEIDFECPLIGRQKFAHDVDEETFRKELSTARTFGFMKDVERLWAAGLALGASLDNSLVIGDDNSIVNADGLRFKDEFVRHKTLDAVGDLALAGLPFIGCFSSYRGGHRLNSEAVKALLSDETAFEIIEALEHHHHHH | soluble |
| MFSAKKRDKCIGEMSEKQLDLLVIGGGITGAGIALDAQVRGIQTGLVEMNDFASGTSSRSTKLVHGGLRYLKQFEIKLVAEVGKERAIVYENAPHVTTPEWMLLPIFKDGTFGKFSTSLGLKVYDYLADVRKDERRYMLNEKQTLEKEPLLRKENLKGGGIYVEYRTDDARLTLEIMKEAVARGAVALNYMKVESFIYDQGKVVGVVAKDRLTDTTHTIYAKKVVNAAGPWVDTLREKDRSKHGKYLKLSKGVHLVVDQSRFPLRQAVYFDTESDGRMIFAIPREGKTYIGTTDTFYDKDIASPRMTVEDRDYILAAANYMFPSLNLTADDVESSWAGLRPLIHEEGKKASEISRKDEIFFSDSGLISIAGGKLTGYRKMAERTVDAVAQGLNVNEPCTTAAIRLSGGLAEGAQGFPRFLDEASRKGAKLGFDADEVRRLAKLYGSNVDHVLNYAYEGKEEAEHYGLPALLLGQLQYGVEQEMVATPLDFFVRRTGALFFNISLVHQWKEAVLRWMAEEFSWTEEEKTRFQNELETELKMAVDPLFQVEPTTVLEHHHHHH | soluble |
| MSLSKTLLEIRLNSLIDLRMFYFISLYFRLENKESHKSQEIGNLIRVYNRSKREEAESEPLNLYVEDEKGNLLAGLIAETFGNWLEIEYLFVKEELRGQGIGSKLLQQAESEAKNRNCCFAFVNTYQFQAPDFYQKHGYKEVFSLQDYLYIRQRYYYQKNLEGHHHHHH | not soluble |
| MITKRQLSILNAIVEDYVDFGQPIGSKTLIHRHHLDVSPATIRNEMKQLEEMHFIEKTHTSSGRVPSESGIRYYVNRLLEQTSHQSQNKIQRLNQLLIENHYDSSTALTNFAHELSMKSQYATLVVRPNHKQDVINDIHLIRANNHLIILVMVFSSGHVENIHFVSHAQLNNINLNKIANFLTEHFSFNRKVLTQNIESYFSQKEELLLANEVVEMINLQIGNQSNSIYMGGKVKLIDALNESNVSSIQPILQYIESNKITELLEDISTSQINVRIGKEIDDSLSDISIVTSQYHFDESLKGQIAVIGPTAMHYQNVIQLLNRIW | not soluble |
| MSGKNEADSKDTGWEQIKDKGKIVVATSGTLYPTSYHDTDSGSDKLTGYEVEVVREAAKRLGLKVEFKEMGIDGMLTAVNSGQVDAAANDIDVTKDREEKFAFSTPYKYSYGTAIVRKDDLSGIKTLKDLKGKKAAGAATTVYMEVARKYGAKEVIYDNATNEQYLKDVANGRTDVILNDYYLQTLALAAFPDLNITIHPDIKYMPNKQALVMKKSNAALQKKMNEALKEMSKDGSLTKLSKQFFNKADVSKKIDADVQDVDLLEHHHHHH | soluble |
| STSPLSDLLNLDLSDTKKIIAEYIWIGGSGMDIRSKARTLPGPVSNPTKLPKWNYDGSSTDQAAGDDSEVILYPQAIFKDPFRKGNNILVMCDAYRPAGDPIPTNNRHKAVKIFDHPNVKAEEPWFGIEQGYTLLKKDVKWPLGWPLGGFPGPQGPYYCAVGADKAFGRDIVDAHYKACLYSGLSIGGANGEVMPGQWEFQISPTVGIGAGGQLWVARYILERITEICGVIVSFDPKPIQGDWNGAAAHTNFSTKSMRKDGGLDLIKEAIKKLEVKHKQHIAAYGEGNERRLTGKHETADINTFSWGVADRGASVRVGRDTEKEGKGYFEDRRPSSNMDPYLVTSMIAETTIL | soluble |
| MPKIISKRKFNILRKTKEEIFSQIVYTKKRNGLHKAAKEYYFKDKDFTIIEDQQDRPDKPEELDTPDIPKPPKPPKGPDQPEEPGQPGGPDDPNSGNKKMPKPDEFVTHRQLQEFKKDLLVELHEIFPTKPELKRVEEKVDVLFELQKAQGEQIRIQGEQIKELKVEQKAQGETLQLILQTLQKMNDRLDKIEGKMDKMESRMDKMETRLDKLESK | soluble |
| MEDLLVVGQIINTHGLRGEMKVMPLTEDMRRFDYLEYVILKGKKVKVEGVKYFKDKVILKLEGINSIEEAEKLKRTYLEIEREDAIELEEDEYFIVDLVGCTVVDTEGFEYGKIKDVIQTPSNDVYWVQGKKEVLVPVLKDIVLDINMDEKLITIRPSGEWQYEDLEHHHHHH | not soluble |
| SVCAAQNCQRPCKDKVDWVQCDGGCDEWFHQVCVGVSPEMAENEDYICINCA | soluble |
| MAHCLHPEKFFPVVKSVALPPGSLNGKVALVTGGGTGLGKAIATTFAHLGASVAIAARRLDVLEKTADEIRSSTGGVCEPFQMDVKDPAKVAKAFDAVEKKLGHTPDILINNAAGNFIMATERLSPNAYGTIIDIVLKGTLHVTTELGRRCIQQKRGASVLSITTLYAQSGAPFVVPSAVSKAGVENMTKSLASEWAKHGLRFNAIAPGPIPTEGAFGRLFAGELKDSGDAMKASVPVGRLGHPEEIANLAAFMSSDFMSWMNGAIIDFDGGQQHIHHGSHMGQFLHEWDNEKWEETENLIRGRTGKEKKSKL | soluble |
